Measurements taken from US20170022545, “RNA MICROARRAY FOR DETECTING INTERACTION BETWEEN PROTEIN AND RNA CONTAINING A HIGHER-ORDER STRUCTURE” (KYOTO UNIVERSITY, published 2017).

B1: PoP_00022_hsa-let-7c loop (ssRNA)
RNA: GAACUGGCAAUCGCACCCACCUAAAGGGUGUACGAAGUUUCAGCGGUUUAGAGUUACACCCUGGGAGUUAACUGCUGAAGCUUCGUGCAC
B2: PoP_00028_hsa-let-7i loop (ssRNA)
RNA: GAUAUGACCGCCGGCUUAGAAUAGAAGGUGUACGAAGUUUCAGCGCUGUUGGUCGGGUUGUGACAUUGCCCGCUGUGGAGAUAACUGCGCUGAAGCUUCGUGCAC
B3: PoP_00011_dU1A2 (ssRNA)
RNA: GAGACGAGGCCCUAGAUCAUGCAUCCGUUUGGGAAUAUAGUGCCGAGUCCUUCGGGACAUUACGGCGGCGCUAUAUUCCCGGA
B4: PoP_00016_dU1A (ssRNA)
RNA: GGGGUAUAUCCUCACACUUCCCGGGCGUUUGGGAAUAUAGUGCCAUUACGGUCCGGCGCUAUAUUCCCGGA
B5: PoP_00027_hsa-let-7g loop (ssRNA)
RNA: GCACAAGGAGUAAGGCGCAUGUACCCGGUGUACGAAGUUUCAGCACAGUUUGAGGGUCUAUGAUACCACCCGGUACAGGAGAUAACUGUGCUGAAGCUUCGUGCAC
B6: PoP_00019_hsa-let-7a-2 loop (ssRNA)
RNA: GACACGGUAGGGAAACCCACCAACUAGGUGUACGAAGUUUCAGCAUAGUUUAGAAUUACAUCAAGGGAGAUAACUGUGCUGAAGCUUCGUGCAC
B7: PoP_00010_U1A2 (ssRNA)
RNA: GGUGUCCAGAUUAGGCGUGCCAUACCGUUUGGGAAUAUAGUGCCGAGUCCUUCGGGACAUUGCACCGGCGCUAUAUUCCCGGA
B8: PoP_00025_hsa-let-7f-1 loop (ssRNA)
RNA: GUAAUCGAGGCGUAAGGCACAACAUAGGUGUACGAAGUUUCAGCAUAGUUGUGGGGUAGUGAUUUUACCCUGUUCAGGAGAUAACUAUGCUGAAGCUUCGUGCAC
B9: PoP_00008_dKt (ssRNA)
RNA: GGAUUCCACUCAAGCUUCACGGGAUAGUUUGGGAAUAUAGUGCCUGCCCGAAAGGGCGUCAUGGCGCUAUAUUCCCGGA
B10: PoP_00018_hsa-let-7a-1 loop (ssRNA)
RNA: GGUGACGGGCAAAUCACUAACCACCCGGUGUACGAAGUUUCAGCAUAGUUUUAGGGUCACACCCACCACUGGGAGAUAACUAUGCUGAAGCUUCGUGCAC
B11: PoP_00023_hsa-let-7d loop (ssRNA)
RNA: GCAAUAUCAUCGCGUGUUAAGGUGGCGGUGUACGAAGUUUCAGCAUAGUUUUAGGGCAGGGAUUUUGCCCACAAGGAGGUAACUAUGCUGAAGCUUCGUGCAC
B12: PoP_00014_U1A (ssRNA)
RNA: GAUAGAGCCAACUAUGCGCAGUUACCGUUUGGGAAUAUAGUGCCAUUGCACUCCGGCGCUAUAUUCCCGGA
B13: PoP_00024_hsa-let-7e loop (ssRNA)
RNA: GACGGGAUCCAAGCGCUCGUAAUAGCGGUGUACGAAGUUUCAGCAUAGUUGAGGAGGACACCCAAGGAGAUCACUAUGCUGAAGCUUCGUGCAC
B14: PoP_00021_hsa-let-7b loop (ssRNA)
RNA: GAACCGGCUACGCUAAACUUAGAACCGGUGUACGAAGUUUCAGCGUGGUUUCAGGGCAGUGAUGUUGCCCCUCGGAAGAUAACUAUGCUGAAGCUUCGUGCAC
B15: PoP_00001_Kt (ssRNA)
RNA: GUAUAAGCGGGAGAUUCGUCCUCAUAGGUGUACGAAGUUUCAGCUGACCCGAAAGGGCGUGAUGCUGAAGCUUCGUGCAC
B16: PoP_00026_hsa-let-7f-2 loop (ssRNA)
RNA: GCCUUGAUGGCCGUCAGUUCGGUUAAGGUGUACGAAGUUUCAGCAUAGUUUUAGGGUCAUACCCCAUCUUGGAGAUAACUAUGCUGAAGCUUCGUGCAC
B17: PoP_00020_hsa-let-7a-3 loop (ssRNA)
RNA: GAGAGAGGAUUCUCACUUACUGUACCGGUGUACGAAGUUUCAGCAUAGUUUGGGGCUCUGCCCUGCUAUGGGAUAACUAUGCUGAAGCUUCGUGCAC

Tests used:
U1A [1] = biological target: T1, U1A (Homo sapiens, UniProt P09012 P09012:2-282); assay: RNA microarray, signal at least 10-fold below U1A2/U1A; conditions: tags: Cy3-labelled (NHS ester), label: 3' pCp-Cy5, hairpin
Experimental: (§1) To a 1.5-mL tube, 120 ng of Cy5-RNA probe PoP_00001 Kt, 120 ng of Cy5-RNA probe PoP_00001, 00008, 00010, 00011, 00014, 00016, PoP_00018-28 and ultrapure water were mixed and controlled to have a volume of 18 μL. Hereinafter, the same operation as described in Section 8 above was performed. Binding of the RNA probe to a target spot was confirmed based on Cy5 signal.
(§2) Subsequently, to the gasket slide on the hybridization chamber, 70 μL of 40 nM Cy3-U1A was added and a microarray slide having RNA probes bound thereto was mounted and then a hybridization chamber was assembled. Incubation was performed at room temperature for 30 minutes. The hybridization chamber was made into pieces and the microarray slide was taken out, separated from the gasket in the TBSMT buffer, washed with TBSMT buffer at room temperature for 5 minutes, and further rinsed with TBSM buffer. Thereafter, the dried microarray slide was scanned.

L7Ae [2] = biological target: T2, L7Ae (UniProt O29494 O29494:1-119); assay: RNA microarray, no Cy3 signal; conditions: tags: Cy3-labelled (NHS ester); label: 3' pCp-Cy5; hairpin
Experimental: The mixture solution was incubated at 100° C. for 5 minutes and subsequently on ice for 5 minutes. On the lower frame of a hybridization chamber (Agilent), a gasket slide (Agilent) was mounted. In a single well of the gasket slide, the mixture solution (45 μL) was added and the well was covered with a DNA Barcode microarray slide and then a hybridization chamber was assembled. The hybridization chamber was set at a rotor (Agilent) of a hybridization oven of 55° C. Incubation was performed for 20 hours at a rotation rate of 20 per minute. The hybridization chamber was taken out from the oven and made into pieces. The microarray slide was taken out, separated from the gasket in Gene Expression Wash Buffer 1 (Agilent), washed with Gene Expression Wash Buffer 1 at room temperature for 5 minutes and further washed with Gene Expression Wash Buffer 2 (Agilent) at 37° C. for 5 minutes. The dried microarray slide was scanned by a microarray scanner (Agilent) in the mode of 8×15K, c scan, AglilentHD_miRNA, two color, XDR Hi and Lo (0.05). In this manner, binding of an RNA probe to a target spot was confirmed based on Cy5 signal.
Subsequently, to the gasket slide on the hybridization chamber, 70 μL of 5 nM Cy3-L7Ae (controlled in concentration with TBSMT buffer (Tris-HCl 20 mM, NaCl 300 mM, 5 mM MgCl₂, 0.1% Tween-20)) was added and then a microarray slide scanned was mounted. A hybridization chamber was assembled and incubation was performed at room temperature for 30 minutes. The hybridization chamber was made into pieces and the microarray slide was taken out, separated from the gasket in the TBSMT buffer, washed with TBSMT buffer at room temperature for 5 minutes, and further washed with TBSM buffer (Tris-HCl 20 mM, NaCl 300 mM, 5 mM MgCl₂) at room temperature for 5 minutes. The dried microarray slide was scanned again. […] In addition, Cy3 signal, which was 1.5 times as strong as that at PoP_00001_Kt, was detected at a spot of PoP_00024_hsa-let-7e. No Cy3 signal was detected at spots of other 10 probes.

U1A [3] = biological target: T1, U1A; assay: RNA microarray, 40 nM U1A; conditions: tags: Cy3-labelled (NHS ester); label: 3' pCp-Cy5; hairpin
Experimental: as §1, §2

L7Ae [4] = biological target: T2, L7Ae; assay: EMSA; 50 mM HEPES-KOH pH 7.8, 100 mM KCl, on ice; conditions: tags: Cy3-labelled (NHS ester); label: 3' pCp-Cy5; hairpin
Experimental: Specific binding of DNA Barcode (bc25mer_00001) and Cy5-RNA probe (PoP_00001_Kt), and further, binding of Cy5-RNA probe (PoP_00001_Kt, PoP_00024_hsa-let-7e) and L7Ae were confirmed by EMSA as follows. First, bc25mer_00001 and PoP_00001_Kt or PoP_00024_hsa-let-7e were mixed and annealed. The composition of a reaction solution (11 μL) was as follows: 500 nM bc25mer_00001, 500 nM Cy5-RNA probe, 1× Annealing Buffer (50 mM HEPES-KOH (ph7.8), 100 mM KCl). The reaction was incubated at 95° C. for 5 minutes and at room temperature for 10 minutes. Subsequently, the DNA/RNA complex annealed and L7Ae were bound by mixing them as follows. The composition of a reaction solution (15 μL) was as follows: 0, 100, 200, 500 or 1000 nM Cy3-L7Ae, 50 nM DNA/RNA complex and 1× Annealing Buffer. Incubation was performed on ice for one hour. To the solution, 3.75 μL of a 5× dye solution (0.25% bromophenol blue, 30% glycerol) was added and mixed. The mixture solution (10 μL) was overlaid on non-denatured 15% polyacrylamide (1/30 bis-acrylamide) gel and electrophoresis was performed at 4° C. and 200 V for 60 minutes. After the electrophoresis, the gel was stained with SYBR Green I and II at room temperature for 15 minutes, and scanned by Typhoon FLA 7000 (GE Healthcare) in SYBR Green mode (600 pmt). Bands were confirmed.

L7Ae [5] = biological target: T2, L7Ae; assay: RNA microarray, 5 nM L7Ae, 300 mM NaCl, 5 mM MgCl2; conditions: tags: Cy3-labelled (NHS ester); label: 3' pCp-Cy5; hairpin
Experimental: To a 1.5 mL tube, 120 ng of Cy5-RNA probe PoP_00001_Kt, 120 ng of Cy5-RNA probe PoP_00018-28 and ultrapure water were mixed and controlled to have a volume of 18 μL. To this, 4.5 μL of 10× Gene Expression Blocking Agent (Agilent) and 22.5 μL of 2×Hi-RPM Hybridization Buffer (Agilent) were added and mixed. The mixture solution was incubated at 100° C. for 5 minutes and subsequently on ice for 5 minutes. On the lower frame of a hybridization chamber (Agilent), a gasket slide (Agilent) was mounted. In a single well of the gasket slide, the mixture solution (45 μL) was added and the well was covered with a DNA Barcode microarray slide and then a hybridization chamber was assembled. The hybridization chamber was set at a rotor (Agilent) of a hybridization oven of 55° C. Incubation was performed for 20 hours at a rotation rate of 20 per minute. The hybridization chamber was taken out from the oven and made into pieces. […]
Subsequently, to the gasket slide on the hybridization chamber, 70 μL of 5 nM Cy3-L7Ae (controlled in concentration with TBSMT buffer (Tris-HCl 20 mM, NaCl 300 mM, 5 mM MgCl₂, 0.1% Tween-20)) was added and then a microarray slide scanned was mounted. […] In addition, Cy3 signal, which was 1.5 times as strong as that at PoP_00001_Kt, was detected at a spot of PoP_00024_hsa-let-7e.

T2 sequence (O29494 whole entry, one chain of several): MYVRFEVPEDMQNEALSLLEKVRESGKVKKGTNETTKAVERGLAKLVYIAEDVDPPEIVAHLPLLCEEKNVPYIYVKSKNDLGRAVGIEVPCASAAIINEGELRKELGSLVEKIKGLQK
T1 sequence (P09012 2-282, one chain of several): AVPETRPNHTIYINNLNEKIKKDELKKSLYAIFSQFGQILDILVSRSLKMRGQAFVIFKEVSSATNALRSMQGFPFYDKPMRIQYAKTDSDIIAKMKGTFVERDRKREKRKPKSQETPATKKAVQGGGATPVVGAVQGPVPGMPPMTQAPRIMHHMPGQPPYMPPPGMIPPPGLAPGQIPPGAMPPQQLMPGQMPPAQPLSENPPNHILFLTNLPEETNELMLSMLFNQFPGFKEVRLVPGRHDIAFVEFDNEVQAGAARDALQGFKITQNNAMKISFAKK

Row | Binder | binding result (U1A [1]) | binding result (L7Ae [2]) | further results
1 | B1 | no binding | no binding | 
2 | B2 | no binding | no binding | 
3 | B3 | no binding |  | 
4 | B4 | no binding |  | 
5 | B5 | no binding | no binding | 
6 | B6 | no binding | no binding | 
7 | B7 |  |  | binding signal (U1A [3]): ≥ 10 fold Cy3 signal vs other spots
8 | B8 | no binding | no binding | 
9 | B9 | no binding |  | 
10 | B10 | no binding | no binding | 
11 | B11 | no binding | no binding | 
12 | B12 |  |  | binding signal (U1A [3]): ≥ 10 fold Cy3 signal vs other spots
13 | B13 | no binding |  | binding signal (L7Ae [4]): ~10 fold stronger than Kt; binding signal (L7Ae [5]): 1.5 fold Cy3 signal vs Kt
14 | B14 | no binding | no binding | 
15 | B15 |  |  | binding result (U1A [1]; Kt kink-turn loop): no binding
16 | B16 | no binding | no binding | 
17 | B17 | no binding | no binding | 
